Test results from patent US20250376490 (POSTECH RESEARCH AND BUSINESS DEVELOPMENT FOUNDATION, published 2025).

Legend:
[1] = molecular target: SARS-CoV-2 spike RBD wild type (SARS-CoV-2, UniProt P0DTC2 SEQ:1-219); assay: flow
[2] = molecular target: Bovine serum albumin (Bos taurus, UniProt P02769 P02769:25-607); assay: flow; conditions: tags: Sigma-Aldrich; bead-immobilised
Chain of Bovine serum albumin (P02769 25-607, one chain of several): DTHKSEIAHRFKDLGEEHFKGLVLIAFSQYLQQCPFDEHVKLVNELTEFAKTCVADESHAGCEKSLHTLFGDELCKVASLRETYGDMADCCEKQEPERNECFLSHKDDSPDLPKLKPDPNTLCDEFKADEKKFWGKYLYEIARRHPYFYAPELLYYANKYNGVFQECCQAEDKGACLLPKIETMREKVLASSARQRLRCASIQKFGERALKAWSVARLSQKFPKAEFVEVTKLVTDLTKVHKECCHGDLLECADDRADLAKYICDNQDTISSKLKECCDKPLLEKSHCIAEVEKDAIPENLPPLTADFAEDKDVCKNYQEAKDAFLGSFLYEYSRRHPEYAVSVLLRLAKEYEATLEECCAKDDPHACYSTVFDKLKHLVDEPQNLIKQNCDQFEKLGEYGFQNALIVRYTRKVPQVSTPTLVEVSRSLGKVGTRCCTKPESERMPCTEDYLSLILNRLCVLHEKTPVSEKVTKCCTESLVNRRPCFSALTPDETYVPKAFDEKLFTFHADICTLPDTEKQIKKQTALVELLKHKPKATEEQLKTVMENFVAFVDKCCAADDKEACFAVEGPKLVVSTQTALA

| Binder | binding result [1] | binding result [2] |
| --- | --- | --- |
| CGCAGCACCCAAGAACAAGGACTGCTTAGGATTGCGATAGGTTCGG (ssDNA) [CoV2-6C3] | binds | – |
| TCGAGTGGCTTGTTTGTAATGTAGGGTTCCGGTCGTGGGT (ssDNA) [Aptamer-1 core] | binds | – |
| CoV2-RBD-1C (printed as CoV2-RBD-QC in Table 1) (ssDNA) DNA: CAGCACCGACCTTGTGCTTTGGGAGTGCTGGTCCAAGGGCGTTAATGGACA | binds | – |
| R7-02 hybrid (LGKGDFR peptide-DNA) (ssDNA, 5'-hexynyl clicked to C-terminal azide-lysine tagged LGKGDFR peptide) DNA: GGAAGAGATGGCGACACGCAATCGTGGGTTGGGGATATAATGGTAAGCTGATCCTGATGG | – | no binding |
